In patent US12729239B2, “Anti-CEACAM5 antibodies and conjugates and uses thereof” (Merck Patent GmbH, priority 2020, dated 2026):

Columns and labels:
MDA-MB-231 = experiment: Viability assay (Cell Titer-Glo), MDA-MB-231; format: cell-based; conditions: Homo sapiens, read-out: Maximal effect compared to untreated controls at the highest tested concentration
Experimental: Cytotoxicity effects of the ADC on the cancer cell lines were measured by cell viability assays. Cells were seeded in a volume of 90 μL in 96-well plates the day before treatment. Test compounds (ADCs or free payloads) were formulated at 10-fold the starting concentration in cell culture medium. Test compounds were serial diluted (1:4) and 10 μL of each dilution was added to the cells in triplicates. Plates were cultured at 37° C. in a CO2 incubator for six days. For cell viability measurement, Cell Titer-Glo® reagent (Promega™ Corp, Madison, WI) was added to each well, and plates processed according to the manufacturer's instructions. Luminescence signals were measured using a Varioskan plate reader (Thermo Fisher). Luminescence readings were converted to % viability relative to untreated cells. Data was fitted with non-linear regression analysis, using log (inhibitor) vs. response, variable slope, 4-parameter fit equation using GraphPad Prism. Data is shown as % relative cell viability vs. molar compound concentration, error bars indicating standard deviation (SD) of triplicates. Geometric mean values of IC50s derived from multiple experiments were calculated.

[1] = in vivo; cited from earlier work
[2] = in vivo; cited from earlier work; remark: listed apart in the source
[3] = test system: CEACAM5 from Macaca fascicularis; conditions: cited from earlier work
[4] = molecular target: T1, CEACAM-5 epitope in FFPE tissues/cells (Homo sapiens, UniProt P06731); experiment: IHC staining on FFPE cancer cell lines versus CEACAM5 mRNA expression; format: binding; conditions: 104 cancer cell lines, CCLE dataset
T1 construct: formaldehyde fixed paraffin embedded (FFPE) cancer cell line microarrays (CMAs) and human tumor tissues; endogenous in cells; host or cells: 104 FFPE cancer cell lines (microarray)
T1 sequence (P06731 35-676): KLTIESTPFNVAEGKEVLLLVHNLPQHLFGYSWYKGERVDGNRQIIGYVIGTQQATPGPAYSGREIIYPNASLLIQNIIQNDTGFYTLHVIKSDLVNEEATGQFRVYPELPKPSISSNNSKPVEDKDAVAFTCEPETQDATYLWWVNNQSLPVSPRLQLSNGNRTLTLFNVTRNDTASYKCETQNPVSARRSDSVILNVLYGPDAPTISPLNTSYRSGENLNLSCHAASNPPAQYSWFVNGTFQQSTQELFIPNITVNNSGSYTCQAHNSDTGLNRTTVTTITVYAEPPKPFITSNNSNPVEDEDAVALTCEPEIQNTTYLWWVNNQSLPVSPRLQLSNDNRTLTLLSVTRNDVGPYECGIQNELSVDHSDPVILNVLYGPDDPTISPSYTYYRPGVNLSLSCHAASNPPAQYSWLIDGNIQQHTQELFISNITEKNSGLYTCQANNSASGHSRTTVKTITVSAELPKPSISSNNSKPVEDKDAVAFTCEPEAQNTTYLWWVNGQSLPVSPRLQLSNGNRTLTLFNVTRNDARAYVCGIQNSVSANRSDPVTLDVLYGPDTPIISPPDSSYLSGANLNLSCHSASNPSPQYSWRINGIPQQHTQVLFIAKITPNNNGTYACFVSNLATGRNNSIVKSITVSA
Experimental: For the IHC staining with the anti-CEACAM-5 antibody rb8G4, sections of 4 μm from formaldehyde fixed paraffin embedded (FFPE) cancer cell line microarrays (CMAs) and human tumor tissues were mounted on charged slides (SuperFrost Ultra Plus, Thermo Fisher Scientific or TOMO, Matsunami). The staining procedure was performed using a Discovery XT (Roche Diagnostics) staining platform. Following deparaffinization, the sections were heated for epitope retrieval in Tris-EDTA buffer pH 8 (CC1, Roche Diagnostics). The sections were incubated with the primary monoclonal antibody rb8G4 diluted to 0.5 or 0.7 μg/ml in phosphate-buffered saline (PBS) or antibody diluent buffer (DCS). The clone DA1E (rabbit monoclonal IgG, NEB) served as isotype control antibody. The primary antibodies were followed by the HQ anti-rabbit IgG detection kit (Roche Diagnostics). […]
CMAs and the TMA with human organ tissue were stained and scanned with the NanoZoomer (Hamamatsu) with a resolution of 0.46 μm/pixel. […] The scans of the CMAs were analyzed with the image analysis software HALO (Indica Labs, USA). For the determination of the amount of antigen present, positive brown stained area was calculated as percent area of the viable tissue area. Staining (arbitrary units) is calculated as Antibody staining (AU)=% positive tissue area*Average optic density (OD ranges from 0 to 1) of the brown colour. […]

Sequence of CEACAM5 from Macaca fascicularis (as listed by the source): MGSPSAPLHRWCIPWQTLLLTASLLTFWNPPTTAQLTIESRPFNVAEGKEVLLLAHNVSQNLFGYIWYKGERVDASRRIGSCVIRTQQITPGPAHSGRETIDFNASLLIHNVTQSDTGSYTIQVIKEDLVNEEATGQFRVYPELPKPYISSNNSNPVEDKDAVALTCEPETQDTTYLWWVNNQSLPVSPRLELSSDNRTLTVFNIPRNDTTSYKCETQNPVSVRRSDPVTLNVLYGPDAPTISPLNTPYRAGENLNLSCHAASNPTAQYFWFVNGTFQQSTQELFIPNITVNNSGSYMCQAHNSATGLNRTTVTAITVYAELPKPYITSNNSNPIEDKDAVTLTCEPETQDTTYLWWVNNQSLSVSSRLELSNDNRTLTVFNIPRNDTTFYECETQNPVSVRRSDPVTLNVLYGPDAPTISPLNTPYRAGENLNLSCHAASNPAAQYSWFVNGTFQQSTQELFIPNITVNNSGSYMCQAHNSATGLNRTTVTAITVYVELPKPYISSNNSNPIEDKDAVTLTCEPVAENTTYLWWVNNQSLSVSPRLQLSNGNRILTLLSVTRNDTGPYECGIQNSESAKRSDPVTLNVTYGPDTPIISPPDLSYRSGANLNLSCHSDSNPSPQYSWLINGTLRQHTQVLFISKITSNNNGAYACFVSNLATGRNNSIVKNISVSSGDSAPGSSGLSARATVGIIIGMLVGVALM

CC[C@@]1(O)C(=O)OCc2c1cc1n(c2=O)Cc2c-1nc1cc(F)c(C)c3c1c2[C@@H](N)CC3 [PAYLOAD, (1S,9S)-1-Amino-9-ethyl-5-fluoro-1,2,3,9,12,15-hexahydro-9-hydroxy-4-methyl-10H,13H-benzo(de)pyrano(3′,4′:6,7)indolizino(1,2-b)quinoline-10,13-dione]
Emax (MDA-MB-231): -92%

Labetuzumab govitecan
stability of the linker structure [1]: significant instability

SAR408701: Sanofi anti-CEACAM5 ADC: SAR408377 linked to DM4 via SPDB linker
side effects [2]: toxic side effects on several organs and tissues including the cornea of the eye

hmn-14: known anti-CEACAM5 antibody as in labetuzumab govitecan; HC SEQ ID NO: 27, LC SEQ ID NO: 28
cross-reactivity with CEACAM5 from Macaca fascicularis [3]: not cross-reacting

B1: rb8G4: human/rabbit chimeric variant of mAb1; HC SEQ ID NO: 29, LC SEQ ID NO: 30 (antibody)
heavy: EVQLQESGPGLVKPSQTLSLTCTVSDGSVSRGGYYLTWIRQHPGKGLEWIGYIYYSGSTYFNPSLRSRVTMSVDTSKNQFSLKLSSVTAADTAVYYCARGIAVAPFDYWGQGTLVTVSSQPKAPSVFPLAPCCGDTPSSTVTLGCLVKGYLPEPVTVTWNSGTLTNGVRTFPSVRQSSGLYSLSSVVSVTSSSQPVTCNVAHPATNTKVDKTVAPSTCSKPTCPPPELLGGPSVFIFPPKPKDTLMISRTPEVTCVVVDVSEDDPEVQFTWYINNEQVRTARPPLREQQFNSTIRVVSTLPIAHEDWLRGKEFKCKVHNKALPAPIEKTISKARGQPLEPKVYTMGPPREELSSRSVSLTCMINGFYPSDISVEWEKNGKAEDNYKTTPAVLDSDGSYFLYSKLSVPTSEWQRGDVFTCSVMHEALHNHYTQKSISRSPGK
light: EIVLTQSPATLSVSPGERATLSCRTSQSVRSNLAWYQQKPGQAPRLLIYAASTRATGIPARFSGSGSGTEFTLTISSLQSEDFAVYYCQQYTNWPFTFGPGTKVDIKRDPVAPSVLLFPPSKEELTTGTATIVCVANKFYPSDITVTWKVDGTTQQSGIENSKTPQSPEDNTYSLSSTLSLTSAQYNSHSVYTCEVVQGSASPIVQSFNRGDC
modifications: HC of rb8G4; LC of rb8G4
Pearson correlation coefficient of IHC staining signal with mRNA expression [4]: 0.88
